Results as given in patent US8691189B2, “Method of colorectal cancer detection by using radiolabeled anti-GRP78 peptide” (Institute of Nuclear Energy Research, Atomic Energy Council, priority 2011, dated 2014).
Where no end group is shown, it is not given here.

Target: T1, GRP78 (Mus musculus, UniProt P20029)
T1 construct: endogenous in cells; CT26 named for the mouse model
Assay: Immunofluorescence cell staining of colorectal cancer cells
Type: cell-based
Details: FITC-labeled, 1:50, 4° C. overnight, FIG. 3
Method: (A) Immunofluorescence cell staining 4: • (A1) Cell culturing 40: • I. A few colorectal cancer cells are cultured in a RPMI1640 of 10% fetal bovine serum (FBS) (containing 2 mM glutamine, penicillin (100 U/ml) and streptomycin ([…])). • II. The cells are put in a culture chamber having 5% CO2 at 37° C. • III. After being fully grown, the cells adhered on culture dishes are reacted with 0.05% Trypsin and are washed down. • IV. The cells washed down are further washed with a Hank's balanced salts solution. • V. The washed cells are obtained at a number about 1×10^4 to be put into a chamber slide having eight individual sections for further culturing. • VI. […] The sliced tissues are washed with a normal saline solution for 3 times each time for 5 minutes. • (A4) Fluorescence microscopy observation 43: • I. The sliced tissues are fully dried for observation with a microscope. • II. […] A fluorescence image is captured with a digital camera device. • IV. An image of the cells is captured under a visible light as a reference to the fluorescence image.
(A) Fluorescence immunoassay 7: • (A1) Fluorescence immunoassay of colorectal cancer 71: • As modern studies show, colorectal cancer cells and tissues show a lot of GRP78. […] As a result, the anti-GRP78 peptide is able to detect expression of GRP78 in colorectal cancer cell. • (A2) Fluorescence immunoassay of colorectal cancer tissue 72: […]

T1 sequence (P20029 20-655): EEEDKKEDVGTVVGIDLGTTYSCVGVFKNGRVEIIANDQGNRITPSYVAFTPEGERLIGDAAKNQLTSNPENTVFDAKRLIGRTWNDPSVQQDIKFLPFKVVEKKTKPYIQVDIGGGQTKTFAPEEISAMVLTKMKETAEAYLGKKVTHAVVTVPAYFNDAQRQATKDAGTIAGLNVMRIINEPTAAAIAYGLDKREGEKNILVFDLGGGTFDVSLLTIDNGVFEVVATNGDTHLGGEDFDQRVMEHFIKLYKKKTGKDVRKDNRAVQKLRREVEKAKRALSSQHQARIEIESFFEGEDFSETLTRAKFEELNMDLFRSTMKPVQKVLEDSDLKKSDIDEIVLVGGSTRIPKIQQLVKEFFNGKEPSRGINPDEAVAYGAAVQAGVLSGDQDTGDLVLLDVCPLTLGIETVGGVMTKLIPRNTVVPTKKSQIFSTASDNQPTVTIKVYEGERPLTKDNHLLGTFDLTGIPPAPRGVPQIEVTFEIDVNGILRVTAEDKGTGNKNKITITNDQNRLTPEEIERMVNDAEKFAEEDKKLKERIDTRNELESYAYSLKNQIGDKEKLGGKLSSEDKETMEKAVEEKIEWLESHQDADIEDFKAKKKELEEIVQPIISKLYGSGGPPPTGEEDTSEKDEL

Substance | fluorescence expression (detection of GRP78 expression in colorectal cancer cell)
YIFPYIELC [anti-GRP78 peptide] | obvious fluorescence expression
fluorescein isothiocyanate [pure FITC] | no fluorescence expression
